For one molecule, UT-7/Epo cell proliferation, EC50; Tb-Fc2 fraction of variant 1.3 (putative tetramer) and UT-7/Epo cell proliferation, maximum response; Tb-Fc2 fraction of variant 1.3 (putative tetramer) results are on record in article PMC12442453.

This assay addresses T1, human EPOR, endogenous on TF-1 cells (human (endogenous in TF-1)) (UniProt P19235).
T1 sequence: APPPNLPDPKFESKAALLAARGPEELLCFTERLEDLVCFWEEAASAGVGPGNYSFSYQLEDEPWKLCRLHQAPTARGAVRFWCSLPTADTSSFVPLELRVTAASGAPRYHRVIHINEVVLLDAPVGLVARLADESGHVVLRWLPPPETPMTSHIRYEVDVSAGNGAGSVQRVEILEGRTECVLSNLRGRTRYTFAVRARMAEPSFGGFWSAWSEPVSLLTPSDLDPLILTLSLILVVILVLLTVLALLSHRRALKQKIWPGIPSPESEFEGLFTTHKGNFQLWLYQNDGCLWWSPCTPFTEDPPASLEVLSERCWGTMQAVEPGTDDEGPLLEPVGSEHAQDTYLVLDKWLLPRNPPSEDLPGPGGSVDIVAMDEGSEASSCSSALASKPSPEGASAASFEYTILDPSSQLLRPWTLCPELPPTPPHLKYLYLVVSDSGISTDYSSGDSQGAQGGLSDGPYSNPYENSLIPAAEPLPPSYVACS

B1: Db-Fc 1.3 (Fc fusion)
VH: EVQLVESGGGLVQPGGSLRLSCAASGFNLRSYYMHWVRQAPGKGLEWVASISPHYGYTYYADSVKGRFTISADTSKNTAYLQMNSLRAEDTAVYYCARHGYSAMDYWGQGTLVTVSS
VL: DIQMTQSPSSLSASVGDRVTITCRASQSVSSAVAWYQQKPGKAPKLLIYSASSLYSGVPSRFSGSRSGTDFTLTISSLQPEDFATYYCQQSSDSLFTFGQGTKVEIK
On to B1, for which the UT-7/Epo cell proliferation, EC50; Tb-Fc2 fraction of variant 1.3 (putative tetramer) was found to be 2 nM and the UT-7/Epo cell proliferation, maximum response; Tb-Fc2 fraction of variant 1.3 (putative tetramer) was determined as 2.2e+06 RLU.
